The text below walks through data of publication PMC7111312 (Virology, 2019).

This series concerns the molecule itself. The series is described as follows: crystal structure.

B1: Wild type CavV 3CLpro (Cavally virus 3C-like protease) (enzyme, Cavally virus (CavV), UniProt F8RL29 1387-1700, looked up)
chain: SAASNPSISHIVLEMPVAINPLIKYTTRTSVSSLRGAVVNGYIYIQRHLFGSKKQEFEACYNNGKGLLNCKNLERSKYDIDSAELIGTLIRIPLHDKHSIPHISIHPDPLSYNGPVTLYLSRYDTELNKDVLCVHTGFMSEGHHDIKTVFGDCGGMLFDPKGRLLGLHCAGSDDVVFMDTTTGKSNIWTSYKLQHPSEIMITLNNEINLPNPANYDFETTKVVYQHPLRNVCATLETLQHLTNKTNAKLPYDSRLLSDFNITAEQYNQYGYYIDYNNFVNNFNRYTTTTIGTKSFETCIKYGLMDNKKPDYYNQ
For B1, the “stoichiometry N” value amounted to 2.
